Data set [1] addresses T1, cMet (HGFR) ectodomain, cMet-Fc (human, UniProt P08581 P08581:25-932). The experiment in a line: competition; filter retention vs 32P-trCLN3; ~50 nM cMet; 1x PBS pH 7.4, 2 mM MgCl2, tRNA, BSA, 37 C. To be noted: tags: Fc domain of human IgG1 fusion, R&D Systems; chain copies: 2; G4, micellar nanoconstruct above CMC 300-350 nM. On the procedure:
(§1) To determine the affinity, ˜25 fmol of radiolabeled aptamer was incubated with a cMet concentration of ˜50 nM together with varying concentrations (1 μM-25 μM) of unlabeled competitor for 30 min at 37° C. in 25 μL of buffer containing 0.1 mg/ml E.coli tRNA (Roche, Mannheim, Germany), 0.25 mg/ml BSA, 2 mM MgCl₂ in 1× PBS, pH 7.4. The aptamer-protein complexes were captured on a Protran nitrocellulose membrane (GE Healthcare) that was pre-incubated in 0.4 M KOH for 10 minutes, followed by washing with 1× PBS containing 2 mM MgCl₂, pH 7.4. After addition of the aptamer-protein solution, the filter was washed 4 times with lx PBS containing 2 mM MgCl₂ using vacuum filtration. Residual radioactivity due to cMet bound labeled aptamers was quantified using Fujifilm Fla-3000 Phosphorlmager and AIDA software. The curves were fitted with GraphPadPrism 3.02 plotting non-linear regression curve and the IC₅₀ values have been calculated assuming a competition for single binding site.
(§2) To test the influence of lipid tails on aptamer binding, a competitive filter-binding assay was carried out using the methodology above. Varying concentrations of unlabeled 5′-lipid functionalized aptamer 3 and its two-point mutant variant trCLN3.mut-L4 (see Example 2.3) competed with a constant amount of ³²P-radio-labeled native trCLN3 aptamer in binding to cMet.

The target in data set [2] is T1, cMet (HGFR) ectodomain, cMet-Fc. The experiment in a line: competition; no competition with 32P-trCLN3 within tested concentration range. The conditions noted are these: tags: Fc domain of human IgG1 fusion, R&D Systems; chain copies: 2. How it is done:
as §1, §2

The target is the same in data set [3]. The experiment in a line: filter; almost no binding in filter retention assay. To be noted: tags: Fc domain of human IgG1 fusion, R&D Systems; chain copies: 2.

T1 sequence (P08581 25-932, one chain of several): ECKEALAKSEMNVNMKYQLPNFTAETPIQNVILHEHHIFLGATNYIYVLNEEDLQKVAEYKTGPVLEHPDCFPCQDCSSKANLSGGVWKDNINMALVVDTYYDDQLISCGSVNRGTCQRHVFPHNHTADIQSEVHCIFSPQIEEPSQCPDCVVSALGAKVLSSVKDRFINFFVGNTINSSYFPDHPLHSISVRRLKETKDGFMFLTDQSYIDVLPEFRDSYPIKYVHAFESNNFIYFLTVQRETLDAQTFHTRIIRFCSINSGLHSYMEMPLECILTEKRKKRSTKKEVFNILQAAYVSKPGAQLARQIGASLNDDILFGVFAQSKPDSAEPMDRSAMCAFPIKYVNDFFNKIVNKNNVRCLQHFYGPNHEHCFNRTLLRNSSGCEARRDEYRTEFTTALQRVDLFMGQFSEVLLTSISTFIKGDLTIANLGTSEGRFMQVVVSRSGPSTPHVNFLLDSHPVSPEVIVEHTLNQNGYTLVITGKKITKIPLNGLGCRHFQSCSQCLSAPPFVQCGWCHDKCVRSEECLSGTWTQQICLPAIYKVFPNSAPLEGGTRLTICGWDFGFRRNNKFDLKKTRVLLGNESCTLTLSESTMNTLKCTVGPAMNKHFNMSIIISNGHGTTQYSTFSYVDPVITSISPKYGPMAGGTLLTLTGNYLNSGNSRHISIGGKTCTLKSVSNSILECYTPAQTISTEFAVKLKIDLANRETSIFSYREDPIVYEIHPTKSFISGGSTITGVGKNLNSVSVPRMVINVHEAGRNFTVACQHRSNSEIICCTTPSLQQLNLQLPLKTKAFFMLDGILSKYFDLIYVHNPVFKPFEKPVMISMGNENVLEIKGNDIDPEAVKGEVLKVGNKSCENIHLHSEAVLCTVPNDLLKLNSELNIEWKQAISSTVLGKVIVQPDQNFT

Turning to TGGATGGTAGCTCGGTCGGGGTGGGTGGGTTGGCAAGTCT (structured_DNA, four 5-(1-dodecynyl)-2'-deoxyuridine (C12 lipid) residues at 5' end) [trCLN3-L4], in data set [1], the IC50 stood at 0.043 µM.

As to TGGATGATAGCTCGGTCGGGGTGGATGGGTTGGCAAGTCT (ssDNA, four 5-(1-dodecynyl)-2'-deoxyuridine (C12 lipid) residues at 5' end) [trCLN3.mut-L4], the binding result in data set [2] is given as “no binding”.

Consider TGGATGATAGCTCGGTCGGGGTGGATGGGTTGGCAAGTCT (ssDNA) [trCLN3.mut], for which the binding result in data set [3] is given as “no binding”.

As usually defined, the IC50 is the concentration at which inhibition is half-maximal. A high value points to weaker potency.
